Results taken from patent US20120014911A1 (published 2012).

Molecular target: T1, endogenous PKD1 from 293T cells (human, UniProt Q15139 1-912)
T1 construct: also called PKD1/PKCµ
T1 sequence (looked up): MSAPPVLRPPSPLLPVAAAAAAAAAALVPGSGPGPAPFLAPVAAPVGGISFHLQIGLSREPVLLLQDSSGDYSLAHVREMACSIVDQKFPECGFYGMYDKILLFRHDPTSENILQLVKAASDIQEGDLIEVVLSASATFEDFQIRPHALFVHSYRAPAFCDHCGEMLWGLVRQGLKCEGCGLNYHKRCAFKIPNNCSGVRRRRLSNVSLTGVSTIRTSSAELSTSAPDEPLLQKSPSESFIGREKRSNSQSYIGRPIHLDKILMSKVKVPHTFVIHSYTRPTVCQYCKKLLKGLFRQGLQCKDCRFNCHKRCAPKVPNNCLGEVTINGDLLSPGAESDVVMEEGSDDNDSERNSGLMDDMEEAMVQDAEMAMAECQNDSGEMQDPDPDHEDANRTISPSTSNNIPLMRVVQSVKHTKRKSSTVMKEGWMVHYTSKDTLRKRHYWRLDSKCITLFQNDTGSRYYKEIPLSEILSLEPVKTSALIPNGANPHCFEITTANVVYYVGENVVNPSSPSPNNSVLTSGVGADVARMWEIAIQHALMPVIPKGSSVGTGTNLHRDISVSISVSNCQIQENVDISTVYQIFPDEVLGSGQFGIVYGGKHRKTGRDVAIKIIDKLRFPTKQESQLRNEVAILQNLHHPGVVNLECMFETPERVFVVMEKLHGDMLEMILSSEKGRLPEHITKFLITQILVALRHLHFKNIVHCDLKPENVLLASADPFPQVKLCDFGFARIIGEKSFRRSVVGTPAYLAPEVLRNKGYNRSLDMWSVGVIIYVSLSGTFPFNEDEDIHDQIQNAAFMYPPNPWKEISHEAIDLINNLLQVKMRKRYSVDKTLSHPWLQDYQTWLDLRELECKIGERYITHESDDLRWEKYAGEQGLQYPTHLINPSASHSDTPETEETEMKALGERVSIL
Assay: co-immunoprecipitation of endogenous proteins from 293T cell lysates, untreated or treated with IFN-α

binding result: no binding
B1: endogenous IFNAR1 from 293T cells (receptor, human, UniProt P17181 28-557, looked up)
chain: KNLKSPQKVEVDIIDDNFILRWNRSDESVGNVTFSFDYQKTGMDNWIKLSGCQNITSTKCNFSSLKLNVYEEIKLRIRAEKENTSSWYEVDSFTPFRKAQIGPPEVHLEAEDKAIVIHISPGTKDSVMWALDGLSFTYSLVIWKNSSGVEERIENIYSRHKIYKLSPETTYCLKVKAALLTSWKIGVYSPVHCIKTTVENELPPPENIEVSVQNQNYVLKWDYTYANMTFQVQWLHAFLKRNPGNHLYKWKQIPDCENVKTTQCVFPQNVFQKGIYLLRVQASDGNNTSFWSEEIKFDTEIQAFLLPPVFNIRSLSDSFHIYIGAPKQSGNTPVIQDYPLIYEIIFWENTSNAERKIIEKKTDVTVPNLKPLTVYCVKARAHTMDEKLNKSSVFSDAVCEKTKPGNTSKIWLIVGICIALFALPFVIYAAKVFLRCINYVFFPSLKPSSSIDEYFSEQPLKNLLLSTSEEQIEKCFIIENISTIATVEETNQTDEDHKKYSSQTSQDSGNYSNEDESESKTSEELQQDFV
notes: also called the receptor
